From the nanobody polyreactivity screen of Harvey et al. (2022)

Experiment: yeast display, Sf9 membrane polyspecificity reagent, FACS + sequencing; frameworks hold sequencing errors
Procedure, shortened: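 A nanobody's polyreactivity label depends on the gate it was sorted from. Yeast display cells were stained with 10% biotinylated, detergent-solubilized Sf9 membrane reagent for 1 hour at 4 °C, enriched on streptavidin microbeads and sorted by FACS. The low and high (top ~1%) gates were set on anti-HA fluorescence for expression and streptavidin fluorescence for reagent binding.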

Sequence | polyreactivity (PSR sort gate)
QVQLVESGGGLVQAGGSLRLSCAASGFIFSYYAKGWYRQAPGKERELVAAIDGSGGSTYYADSVKGRFTISRDNAKNTVYLQMNSLKPVDTAVYYCNTLIFIQGLGYDYWGQGTQVTVSS | high polyreactivity
QVQLVESGGGLVQAGGSLRLSCAASGFIFSYYAMGWYRQAPGKERELVAAISSGGSTYYADSVKGRFTISRDNAKNSVYLQMNSLKPEDTAVYYCAAAIWYIILYFVRRTEHGYWGQGTQVTVSS | low polyreactivity
QVQLVESGGGLVQAGGSLRLSCAASGFIFTDNAMGWYRQAPGKESEFVAAITYSGGSTYYADSVKGRFTISRDNAKNTVYLQMNSLKPEDTAVYYCNKDFFPAPVVVTAYEYEYWGQGSQVTVSS | low polyreactivity
QVQLVESGGGLVQAGGSLRLSCAASGFIFTGYAMGWYRQAPGKERELVATISRRGGSTYYADSVKGRFTISRDNAKNTVYLQMNSLKPEDTAVYYCAAQRTLYRSGFDSWGQGTQVTVSS | high polyreactivity
QVQLVESGGGLVQAGGSLRLSCAASGFIFTIYAMGWYRQAPGKERELVAAISSGGSTTYADSVKGRFTISRDNAKNTVYLQMNSLKPEDTAVYYCNAGVDPFGSLLPFTDQYDYWGQGTQVTVSS | low polyreactivity
QVQLVESGGGLVQAGGSLRLSCAASGFIFTNVMGWYRQAPGKERELVAAISGRGTSTYYADSVKGRFTISRDNAKNTVYLQMNSLKPEDTAVYYCAAYFTSRLDYWGQGTQVTVSS | high polyreactivity
QVQLVESGGGLVQAGGSLRLSCAASGFIFTPYAMGWYRQAPGKERELVAAIRSGTSTNYADSVKGRFTISRDNAKNTVYLQMNSLKPEDTAVYYCAAEEGLIDGRAWYGYWGQGTQVTVSS | low polyreactivity
QVQLVESGGGLVQAGGSLRLSCAASGFIFTPYAMGWYRQAPGKERELVAAITWRGARTYYADSVKGRFTISRDIAKNSVYLQMNSLKPEDTAVYYCAALSRRSYAPRDDYWGQGTQVTVSS | high polyreactivity
QVQLVESGGGLVQAGGSLRLSCAASGFIFTPYTMGWYRQAPGKERELVAAITDGSSTYYADSVKGRFTISRDNAKNTVYLQMNSLKPEDTAVYYCAAVPRYQYGYWGQGTQVTVSS | low polyreactivity
QVQLVESGGGLVQAGGSLRLSCAASGFIFTQYAMGWYRQAPGKERELVAGITSSGNTYYADSVKGRFTISRDNAKNPVYLQMNSLKPEDTAVYYCAARSASRRMDYWGQGTQVTVSS | high polyreactivity
QVQLVESGGGLVQAGGSLRLSCAASGFIFTRNAMGWYRQAPGKERELVAAISASGGRTYYADSVKGRFTISRDNAKNTVYLQMNSLKPEDTAVYYCNTGIYVARSTYGRFKYDYWGQGTQVTVSS | high polyreactivity
QVQLVESGGGLVQAGGSLRLSCAASGFIFTRNAMGWYRQAPGKERELVATISRSGSSTSYADSVKGRFTISRDNAKNTVYLQMNRLKPEDTAVYYCAATYIYRHSVISRYDYWGQGTQVTVSS | high polyreactivity
QVQLVESGGGLVQAGGSLRLSCAASGFIFTSYARGWYRQAPGKDRELVAAITRSGASTSYADSVKGRFTISRDNAKNTVYLQMNSLKPEDTAVYYCAAKAPLPRYYVPRYDYWGQGTQVTVSS | high polyreactivity
QVQLVESGGGLVQAGGSLRLSCAASGFIFTTYAMGWSRQAPGKEWELVAAISTSGGRTYYADSVKGRFTISRDNAKNTVYLQMNSLKPEDTAVYYCNTYSYYSYDWGQGTQVTVSS | high polyreactivity
QVQLVESGGGLVQAGGSLRLSCAASGFIFTTYDMGWYRQAPGKEMELVAAITGSGGRTYYADSVKGRFTISRDNAKNTVYLQMNSLKPEDTAVYYCAARWGNVRFRYGYWGQGTQVTVSS | high polyreactivity
QVQLVESGGGLVQAGGSLRLSCAASGFIFTWYAMGWYRQAPGKEREFVAAITSRGTSTYYADSVKGRFTISRDNAKNTVYLQMNSLKPEDTAVYYCAARASYTRRHVGRPYDYWGQGTQVTVSS | high polyreactivity
QVQLVESGGGLVQAGGSLRLSCAASGFIFTWYAMGWYRQAPGKEREFVAGISRSGGRTYYADSVKGRFTISRDNAKNTVYLHVNSLKPEVTAVFYCGAKYYIGFWLRDYYYWGQCTQVTVSS | high polyreactivity
QVQLVESGGGLVQAGGSLRLSCAASGFIFTWYTMGWYRQAPGKERELVAAITSGGNTNYADSVKGRFTISRDNAKNTVYLQMNSLKPEDTAVYYCARGYLASRLKFAKYDYWGQGTQVTVSS | high polyreactivity
QVQLVESGGGLVQAGGSLRLSCAASGFIFTYNDMGWYRQAPGKERELVASITWDGGRTYYADAVKGRCTISRDNAKNTVYLQMISLKPEDTADYYCAKRLGGSPIQARGDYWGQGTQVTVSS | low polyreactivity
QVQLVESGGGLVQAGGSLRLSCAASGFIFVAYAMGWSRQAPGKERELVAAITSSGGRTYYADSVKGRFTISRDNAKNTVYLQMNSLKPEDTAVYYCAARVYRSAKGYNYWGQGTQVTVSS | high polyreactivity
QVQLVESGGGLVQAGGSLRLSCAASGFIFVDYAMGWYRQAPGTERELVAAITSSGDRTYYADSVKGRFTISRDNAKNTVYLQMNSLKPEDTAVYYCNADWSTAWYTSYDYWGQGTQVTVSS | low polyreactivity
QVQLVESGGGLVQAGGSLRLSCAASGFIFVFNAMGWYRQAPGKERELVAAITWSAGSTYYADSVKGRFTISRDTAKKTVDLQKNSLKPEDTAVYYCAADNWPWPEKPDKSILYDYWGQGTQVTVSS | low polyreactivity

Sequence | polyreactivity (PSR sort gate)
QVQLVESGGGLVQAGGSLRLSCAASGFIFVFYDMGWYRQAPGKERELVAGITRNDGSTYYADSVKGRFKISRDNAKNTVYLQMNSLKPEDTAVYYCAAESAGSYLDYYWAYGYWGQGTQVTVSS | low polyreactivity
QVQLVESGGGLVQAGGSLRLSCAASGFIFVKNAMGWYRQAPGKERELVATINCGSSTTYADSVKGRFTISRDNAKNTVYLQMNSLKPEDTAVYYCNADDVENWTEYDYWGQGTQVTVSS | low polyreactivity
QVQLVESGGGLVQAGGSLRLSCAASGFIFVLNVMGWYRQAPGKERELVAAITWRGTSTYYADSVKGRFTISRDNAKNTVYLQMNSLKPEDTAVYYCAVKGFSTRSYREFDYWGQGTQVTVSS | low polyreactivity
QVQLVESGGGLVQAGGSLRLSCAASGFIFVLYAMGWYRQAPRKERELVAAISRGGSSTYYADSVKGRFTISRDNAKNTVYLQMNSLKPEATAVYYCAARIRNWPAMDYWGQGTQVTVSS | high polyreactivity
QVQLVESGGGLVQAGGSLRLSCAASGFIFVNNVMGWYRQAPGKERELVAAISRRGGSTYYADSVKGRFTISRDNAKNTVYLQMNSLKPEDTAVYYCARRGPDFSWKYDYWGQGTQVTVSS | high polyreactivity
QVQLVESGGGLVQAGGSLRLSCAASGFIFVVYAMGWYRQAPGKERELVATISSGGGTYYADSVKGRFTISRDNAKNTVYLQMNSLKPEDTAVYYCAARRRRLYHFGGNNYWGQGTQVTVSS | high polyreactivity
QVQLVESGGGLVQAGGSLRLSCAASGFIFVVYAMGWYRQAPGTERDLVATISSGGGTYYADSVKGRFTISLDNAKNTVYLQMNSLKPEDTAVYYCAARRRRLYHFGGNNYCGQGTQVTVSS | high polyreactivity
QVQLVESGGGLVQAGGSLRLSCAASGFIFVWNAMGWYRQAPGKERELVANIRDGGITYADSVKGRFTITRDNAKNTVYLQMNSLKPEDTAVYYCARTNFYRSYEPGGRFYNYDYWGQGTQVTVSS | low polyreactivity
QVQLVESGGGLVQAGGSLRLSCAASGFIFVYGNVMGWYRQAPGKERELVASITSDGGSTNYADSVKGRFTISRDNAKNTVYLQMNSLKPEDTAVYYCNADVPRGFGGEYDYWGQGTQVTVSS | low polyreactivity
QVQLVESGGGLVQAGGSLRLSCAASGFIFVYYAMGWYRQAPGKERELVAAISGHGGRTYYADSVKGRFTISRDNAKNTVYLQLNSLKPEDTAVYYCAALLYWRGYGYNYWGQGTQVTVSS | high polyreactivity
QVQLVESGGGLVQAGGSLRLSCAASGFIFWGNAMGWYRQAPGKERELVAAINYSGGRTYYSDSVKGRFTISRDNAKNTVYLQMNSLKPEDTAVYYCAATGPVNRASYDYWGQGTQVTVSS | high polyreactivity
QVQLVESGGGLVQAGGSLRLSCAASGFIFWGNAMGWYRQAPGKERELVAAITYSGDRTYYADSVKGRFTISRDNAKNTVYLQMNSLKPEDTAVYYCNADLALRSRYGEYDYWGQGTQVTVSS | high polyreactivity
QVQLVESGGGLVQAGGSLRLSCAASGFIFWKNAMGWYRQAPGKERELVAAISWSGGRTYYADSVKGRFTISRDNAKNTFYLQINSLKPEETAVYYCNAAGRYKPGAPYDYWGQGTQVTVSS | low polyreactivity
QVQLVESGGGLVQAGGSLRLSCAASGFIFWLYAMGRYRQAPGKERELVAAISNGGSTNYADSVKGRFTISRDNAKNTVYLQMNSLKPEDTAVYYCAAKFPRRFYWYDYWGQGTQVTVSS | high polyreactivity
QVQLVESGGGLVQAGGSLRLSCAASGFIFWQYTMGWYRQAPGKERELVAAITWRGTRTYADSVKGRFTISRDNAKNTVYLQMNSLKPEDTAVYYCAAREYYHGPDGGYYGYDYWGQGTQVTVSS | high polyreactivity
QVQLVESGGGLVQAGGSLRLSCAASGFIFWRYAMGWYRQAPGKERELVASITSTGGSTYYADSVKGRFTISRDNAKNTVYLQMNSLKPEDTAVYYCAADTFVWADWSWHYYWGQGTQVTVSS | high polyreactivity
QVQLVESGGGLVQAGGSLRLSCAASGFIFWYNAMGWYRQAPGKERELVATISVASTYADSVKGRFTISRDNAKNTVYLQMNSLKPEDTAVYYCAADWAGWEGYRMDYWGQGTQVTVSS | low polyreactivity
QVQLVESGGGLVQAGGSLRLSCAASGFIFWYYAMGWYRQAPGKERELVAGITSGGSTNYADSVKGRFTISRDNAKNSVYLQMNSLKPEDTAVYYCAAAPYGGFGRGYDYWGQGTQVTVSS | high polyreactivity
QVQLVESGGGLVQAGGSLRLSCAASGFIFWYYAMGWYRQAPGKERELVARITRIGGRTYYADSVKGRFTISRDNAKNTVYLQMNSLKPEDTAVYYCAKDVDKYRYDYWGQGTQVTVSS | high polyreactivity
QVQLVESGGGLVQAGGSLRLSCAASGFIFYAYAMGWYRQAPGKERELVAAITGSGGRTYYADSVKGRFTISRDNAKNTVYLQMNSLKPEDTAVYYCAAYYTSGGSRTYDYWGQGTQVTVSS | high polyreactivity
QVQLVESGGGLVQAGGSLRLSCAASGFIFYAYAMGWYRQAPGKERELVAAITSSGSRTYYADSVKGRFTISRDNAKNTVYLQMNSLKPEDTAVYYCNARSGGVRYSNIGTEKYDYWGQGTQVTVSS | low polyreactivity
